Test results as given in publication PMC6943187.

Target: WT FUS::EGFP (FUS tagged with a C-terminal GFP tag) (UniProt P35637)
Assay: single-molecule photobleaching step counting

- fraction of dimers (two-step photobleaching): 30%
Substance: WT FUS::EGFP (FUS tagged with a C-terminal GFP tag) (from UniProt P35637 1-526)
